Ends that are not written are not given here.
Molecular target: recombinant Drp1 (GST-Drp1) (human, UniProt O00429 1-736)
Assay: cell-based or functional assay

Sequence of recombinant Drp1 (GST-Drp1) (O00429 other isoform, or with tags, fused parts or gaps): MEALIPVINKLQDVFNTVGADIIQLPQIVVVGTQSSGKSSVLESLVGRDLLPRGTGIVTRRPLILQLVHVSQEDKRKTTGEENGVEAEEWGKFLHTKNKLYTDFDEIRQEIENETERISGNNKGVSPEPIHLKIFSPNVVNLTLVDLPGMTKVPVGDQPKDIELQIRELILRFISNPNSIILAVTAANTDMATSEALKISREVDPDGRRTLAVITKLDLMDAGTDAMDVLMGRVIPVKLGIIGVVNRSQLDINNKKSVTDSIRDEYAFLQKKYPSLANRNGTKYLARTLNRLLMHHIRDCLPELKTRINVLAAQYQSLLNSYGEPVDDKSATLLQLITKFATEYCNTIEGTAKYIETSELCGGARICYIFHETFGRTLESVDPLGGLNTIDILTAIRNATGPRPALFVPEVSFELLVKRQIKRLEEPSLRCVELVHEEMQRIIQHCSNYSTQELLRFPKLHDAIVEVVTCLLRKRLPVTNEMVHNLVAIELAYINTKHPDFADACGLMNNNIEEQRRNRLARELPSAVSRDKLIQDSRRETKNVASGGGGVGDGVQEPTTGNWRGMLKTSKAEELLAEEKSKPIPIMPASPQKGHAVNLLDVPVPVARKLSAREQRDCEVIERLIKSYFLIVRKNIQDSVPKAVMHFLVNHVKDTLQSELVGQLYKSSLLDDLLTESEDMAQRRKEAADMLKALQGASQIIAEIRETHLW

RRRQRRKKRGYGGKLSAREQRD-NH2 [P109]
GTPase activity of recombinant Drp1 (in vitro GTPase assay kit): 40 % inhibition
